Where a chain is given by its changes, count along the chain named.
Legend:
[1] = molecular target: T1, SPEN RRM 1-4 (Homo sapiens) (UniProt Q96T58); experiment: EMSA; conditions: EMSA: 20 mM Tris-HCl pH 7.5, 150 mM KCl, 5 mM MgCl2, 10% glycerol, room temperature 30 min, 2 nM each labeled RNA (multiplexed), 4.5% TBE native gel
T1 sequence: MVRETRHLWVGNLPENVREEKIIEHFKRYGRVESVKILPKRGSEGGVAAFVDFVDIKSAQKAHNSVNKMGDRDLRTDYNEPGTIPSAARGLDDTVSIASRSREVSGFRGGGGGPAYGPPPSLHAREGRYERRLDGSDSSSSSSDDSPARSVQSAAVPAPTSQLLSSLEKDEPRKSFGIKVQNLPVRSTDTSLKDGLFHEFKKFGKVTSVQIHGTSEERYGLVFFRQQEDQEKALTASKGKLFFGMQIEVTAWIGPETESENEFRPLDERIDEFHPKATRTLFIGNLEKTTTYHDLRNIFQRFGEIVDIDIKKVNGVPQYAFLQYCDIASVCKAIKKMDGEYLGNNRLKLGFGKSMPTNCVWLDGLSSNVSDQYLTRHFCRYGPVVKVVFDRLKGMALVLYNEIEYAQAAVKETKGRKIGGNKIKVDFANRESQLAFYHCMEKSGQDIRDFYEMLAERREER

[2] = molecular target: T2, SPEN RRM 2-4 (Homo sapiens) (UniProt Q96T58); experiment: EMSA; conditions: EMSA: 20 mM Tris-HCl pH 7.5, 150 mM KCl, 5 mM MgCl2, 10% glycerol, room temperature 30 min, 2 nM each labeled RNA (multiplexed), 4.5% TBE native gel
T2 sequence: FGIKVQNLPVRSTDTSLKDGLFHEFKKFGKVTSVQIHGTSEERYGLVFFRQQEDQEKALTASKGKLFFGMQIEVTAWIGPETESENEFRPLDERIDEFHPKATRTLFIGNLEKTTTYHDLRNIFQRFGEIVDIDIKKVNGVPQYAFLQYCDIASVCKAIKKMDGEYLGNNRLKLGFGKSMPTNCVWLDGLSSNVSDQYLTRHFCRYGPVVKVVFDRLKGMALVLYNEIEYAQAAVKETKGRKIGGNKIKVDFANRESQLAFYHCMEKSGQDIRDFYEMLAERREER

[3] = molecular target: T3, SPEN RRM 2-4 mut3 F282A;K311A;Y319A;F321A;K353A (Homo sapiens) (UniProt Q96T58); experiment: EMSA; conditions: EMSA: 20 mM Tris-HCl pH 7.5, 150 mM KCl, 5 mM MgCl2, 10% glycerol, room temperature 30 min, 2 nM each labeled RNA (multiplexed), 4.5% TBE native gel
T3 sequence: T2 sequence with F107A, K136A, Y144A, F146A, K178A

SPEN RRM 1-4 [4] = molecular target: T4, SPEN RRM 1-4 (Homo sapiens, UniProt Q96T58); experiment: EMSA; Hill 1; EMSA: 20 mM Tris-HCl pH 7.5, 150 mM KCl, 5 mM MgCl2, 10% glycerol, room temperature 30 min, 2 nM each labeled RNA (multiplexed), 4.5% TBE native gel; conditions: protein: recombinant, tags: 6xHis-MBP-TEV at N-terminus, removed by TEV cleavage
T4 sequence: T1 sequence

SPEN RRM 2-4 mut3 = molecular target: T5, SPEN RRM 2-4 mut3 (Homo sapiens, UniProt Q96T58, F282A;K311A;Y319A;F321A;K353A); experiment: EMSA; Hill 2; text: loss of binding (Kd >1000 nM); EMSA: 20 mM Tris-HCl pH 7.5, 150 mM KCl, 5 mM MgCl2, 10% glycerol, room temperature 30 min, 2 nM each labeled RNA (multiplexed), 4.5% TBE native gel; conditions: protein: recombinant; tags: 6xHis-MBP-TEV at N-terminus, removed by TEV cleavage; label: internal Cy3-, Cy5- or fluorescein-UTP
T5 sequence: T2 sequence with F107A, K136A, Y144A, F146A, K178A

SPEN RRM 2-4 = molecular target: T6, SPEN RRM 2-4 (Homo sapiens, UniProt Q96T58); experiment: EMSA; Hill 10; EMSA: 20 mM Tris-HCl pH 7.5, 150 mM KCl, 5 mM MgCl2, 10% glycerol, room temperature 30 min, 2 nM each labeled RNA (multiplexed), 4.5% TBE native gel; conditions: protein: recombinant; tags: 6xHis-MBP-TEV at N-terminus, removed by TEV cleavage; label: internal Cy3-, Cy5- or fluorescein-UTP
T6 sequence: T2 sequence

SPEN RRM 1-4 [5] = molecular target: T4, SPEN RRM 1-4; experiment: EMSA; Hill 5; EMSA: 20 mM Tris-HCl pH 7.5, 150 mM KCl, 5 mM MgCl2, 10% glycerol, room temperature 30 min, 2 nM each labeled RNA (multiplexed), 4.5% TBE native gel; conditions: protein: recombinant; tags: 6xHis-MBP-TEV at N-terminus, removed by TEV cleavage; label: internal fluorophore-UTP
SPEN RRM 1-4 [6] = molecular target: T4, SPEN RRM 1-4; experiment: EMSA; Hill 2; EMSA: 20 mM Tris-HCl pH 7.5, 150 mM KCl, 5 mM MgCl2, 10% glycerol, room temperature 30 min, 2 nM each labeled RNA (multiplexed), 4.5% TBE native gel; conditions: protein: recombinant; tags: 6xHis-MBP-TEV at N-terminus, removed by TEV cleavage; label: internal fluorophore-UTP
[7] = label: internal fluorophore-UTP

“GCGAGGAGCCUUUCAUCCGAAGGCGGGACGAUGCCGGAUAAUCGGCAGCCGAGGAACCGGCAGCCGAGGAUCCGCUCCGGGAACGAGCCUCGUUCCGCGCCCGCCAUGGAACCGGAUGGUCGCGGUGCCUGGGCCCACAGUCGCGCCGCGCUCGACCGCCUGGAGAAGCUGCUGCGCUGCUCGCGUUGUACUAACAUUCUGAGAGAGCCUGUGUGUUUAGGAGGAA [BARD1 mRNA fragment]” gave a Kd [1] of 210 nM.

“GUACCAGGUAUGUGAUGACAUCAGCCGACGCCUGGCACUGCUGCAGGAACAGUGGGCUGGAGGAAAGUUGUCAAUACCUGUAAAGAAGAGAAUGGCUCUACUGGUGCAAGAGCUUUCAAGCCACCGGUGGGACGCAGCAGAUGACAUCCACCGCUCCCUCAUGGUUGACCAUGUGACUGAGGUCAGUCAGUGGAUGGUAGGAGUUAAAAGAUUAAUUGCAGAAAAGAGGAGUCUGUUUUCAGAGGAGGCAGCCAAUGAAGAGAAAUCUGCAGCCACAGCUGAGAAGAACCAUACCAUACCAGGCUUCCAGCAGGCUUCAUAAUCCUCGGUUCCCCAGACUCACCGGACACCAUCUCCU [SRA]” was tested, and the Kd [1] was 100 nM, the Kd [2] was 300 nM and the Kd [3] was 950 nM.

“GGGCUGCGGAUACCUGGUUUUAUUAUUUUUUCUUUGCCCAACGGGGCCGUGGAUACCUGCCUUUUAAUUCUUUUUUAUUCGCCCAUCGGGGCCGCGGAUACCUGCUUUUUAUUUUUUUUUCCUUAGCCCAUCGGGGUAUCGGAUACCUGCUGAUUCCCUUCCCCUCUGAACCCCCAACACUCUGGCCCAUCGGGGUGACGGAUAUCUGCUUUUUAAAAAUUUUCUUUUUUUGGCCCAUCGGGGCUUCGGAUACCUGCUUUUUUUUUUUUUAUUUUUCCUUGCCCAUCGGGGCCUCGGAUACCUGCUUUAAUUUUUGUUUUUCUGGCCCAUCGGGGCCGCGGAUACCUGCUUUGAUUUUUUUUUUUCAUCGCCCAUCGGUGCU [XIST A-full]” gave a Kd [1] of 100 nM, a Kd [2] of 120 nM and a Kd [3] of 230 nM.

B1: XIST A7-8 (dimer) (structured_RNA)
RNA: GUUGCCCAUCGGGGCCUCGGAUACCUGCUUUAAUUUUUGUUUUUCUGGCCCAUCGGGGCCGCGGAUACCUGCUU
B1 gave a Kd (SPEN RRM 1-4 [4]; [7]) of 248 ± 68 nM.

B2: XIST A6-9+ (structured_RNA)
RNA: GGCUUCGGAUACCUGCUUUUUUUUUUUUUAUUUUUCCUUGCCCAUCGGGGCCUCGGAUACCUGCUUUAAUUUUUGUUUUUCUGGCCCAUCGGGGCCGCGGAUACCUGCUUUGAUUUUUUUUUUUCAUCGCCCAUCGGUGCUUUUUAUGGAUGAAAAAAUGUUGGUUUUGUGGGUUGUUGCACUCUCUGGAAUAUCUACACUUUUUUUUGCUGCUGAUCAUUUGGUGG
B2 was tested, and the Kd (SPEN RRM 1-4 [4]; label: internal fluorophore-UTP (EMSA)) was 48 ± 5 nM.

B3: BARD1 mRNA fragment (structured_RNA)
RNA: GCGAGGAGCCUUUCAUCCGAAGGCGGGACGAUGCCGGAUAAUCGGCAGCCGAGGAACCGGCAGCCGAGGAUCCGCUCCGGGAACGAGCCUCGUUCCGCGCCCGCCAUGGAACCGGAUGGUCGCGGUGCCUGGGCCCACAGUCGCGCCGCGCUCGACCGCCUGGAGAAGCUGCUGCGCUGCUCGCGUUGUACUAACAUUCUGAGAGAGCCUGUGUGUUUAGGAGGAA
For B3, the Kd (SPEN RRM 2-4 mut3) was 2300 ± 500 nM and the Kd (SPEN RRM 2-4) was 550 ± 30 nM.

B4: XIST A6-8 (trimer) (structured_RNA)
RNA: GGCCCAUCGGGGCUUCGGAUACCUGCUUUUUUUUUUUUUAUUUUUCCUUGCCCAUCGGGGCCUCGGAUACCUGCUUUAAUUUUUGUUUUUCUGGCCCAUCGGGGCCGCGGAUACCUGCUU
Work on B4 yielded a Kd (SPEN RRM 1-4 [4]; [7]) of 288 ± 39 nM.

B5: XIST A5-8 (structured_RNA)
RNA: GCCCAUCGGGGUGACGGAUAUCUGCUUUUUAAAAAUUUUCUUUUUUUGGCCCAUCGGGGCUUCGGAUACCUGCUUUUUUUUUUUUUAUUUUUCCUUGCCCAUCGGGGCCUCGGAUACCUGCUUUAAUUUUUGUUUUUCUGGCCCAUCGGGGCCGCGGAUACCUGCUU
For B5, the Kd (SPEN RRM 1-4 [5]) was 127 ± 4 nM.

B6: XIST A6-9 (structured_RNA)
RNA: GGCUUCGGAUACCUGCUUUUUUUUUUUUUAUUUUUCCUUGCCCAUCGGGGCCUCGGAUACCUGCUUUAAUUUUUGUUUUUCUGGCCCAUCGGGGCCGCGGAUACCUGCUUUGAUUUUUUUUUUUCAUCGCCCAUCGGUGCU
With B6 the Kd (SPEN RRM 1-4 [6]) was 185 ± 9 nM.

B7: XIST A4-6 (structured_RNA)
RNA: GCCGCGGAUACCUGCUUUUUAUUUUUUUUUCCUUAGCCCAUCGGGGUAUCGGAUACCUGCUGAUUCCCUUCCCCUCUGAACCCCCAACACUCUGGCCCAUCGGGGUGACGGAUAUCUGCUUUUUAAAAAUUUUCUUUUUUUGGCCCAUCGGGGCUUCGGAUACCUGCUUUUUUUUUUUUUAUUUUUCCUUGCCCAUCGGGG
In the case of B7, the Kd (SPEN RRM 1-4 [6]) is reported as 132 ± 10 nM.

B8: tRNA-Cys (structured_RNA)
RNA: GGGGGUAUAGCUCAGGGGUAGAGCAUUUGACUGCAAAUCAAGAGGUCCCUGAUUCAAAUCCAGGUGCCCCCUCCAAGCUUG
B8 gave a Kd (SPEN RRM 1-4 [4]; [7]) of 245 ± 78 nM.

B9: XIST A1-4 (structured_RNA)
RNA: GCUGCGGAUACCUGGUUUUAUUAUUUUUUCUUUGCCCAACGGGGCCGUGGAUACCUGCCUUUUAAUUCUUUUUUAUUCGCCCAUCGGGGCCGCGGAUACCUGCUUUUUAUUUUUUUUUCCUUAGCCCAUCGGGGUAUCGGAUACCUGCUGAUUCCCUUCCCCUCUGAACCCCCAACACUCUGGCCCAUCG
With B9 the Kd (SPEN RRM 1-4 [4]; [7]) was 71 ± 4 nM.

Source: article PMC10870365, “Dissection of protein and RNA regions required for SPEN binding to XIST A-repeat RNA”
